Data: the RNAGym collection of RNA variant scans (doi:10.7554/elife.80360)

B1: Twister Ribozyme (parent)
chain: AACACUGCCAAUGCCGGUCCCAAGCCCGGAUAAAAGUGGAGGGGGCGG

Variants of: B1
Assay: self-cleavage, relative activity (ratio to wild type); higher = more cleavage; co-transcriptional
For A35U C46U, the self-cleavage was 0.894.
Work on A35U C46G yielded a self-cleavage of 0.927.
Variant A35U C46A has a self-cleavage of 1.04.
G39C G45C showed a self-cleavage of 0.105.
For G39C G45A, the self-cleavage was 0.12.
Work on G39C G45U yielded a self-cleavage of 0.158.
For A35U G44A, the self-cleavage was 0.843.
Variant U37G G48U has a self-cleavage of 0.856.
With A40C C46U the self-cleavage was 0.236.
Work on A40C C46G yielded a self-cleavage of 0.218.
G41A G45C gave a self-cleavage of 0.151.
G41A G45A showed a self-cleavage of 0.588.
G41A G45U showed a self-cleavage of 0.196.
U37G C46U showed a self-cleavage of 0.76.
In the case of U37G C46G, the self-cleavage is reported as 0.79.
Work on U37C G48A yielded a self-cleavage of 0.639.
With G39C G48A the self-cleavage was 0.138.
In the case of G39U G45C, the self-cleavage is reported as 0.183.
Variant A35U G43U has a self-cleavage of 0.352.
With A35U G43A the self-cleavage was 0.25.
Work on A35U G43C yielded a self-cleavage of 0.208.
G41C G43C gave a self-cleavage of 0.148.
G41C G43A showed a self-cleavage of 0.141.
With G41C G43U the self-cleavage was 0.153.
In the case of G36A G39U, the self-cleavage is reported as 0.12.
Variant G39C G41C has a self-cleavage of 0.112.
G39C G41A showed a self-cleavage of 0.0895.
Work on A35C U37C yielded a self-cleavage of 0.592.
Work on A35C U37A yielded a self-cleavage of 0.702.
G38A A40U showed a self-cleavage of 0.118.
In the case of G38A A40G, the self-cleavage is reported as 0.131.
Variant U37A G42U has a self-cleavage of 0.153.
Variant U37A G42A has a self-cleavage of 0.129.
U37A G42C showed a self-cleavage of 0.252.
Variant A40U G43C has a self-cleavage of 0.114.
A40U G43A showed a self-cleavage of 0.132.
In the case of A40G G45C, the self-cleavage is reported as 0.148.
Work on A40G G45U yielded a self-cleavage of 0.147.
Work on G39U G43U yielded a self-cleavage of 0.143.
For G36A G48U, the self-cleavage was 0.809.
G36A G48C gave a self-cleavage of 0.99.
U37C G42A gave a self-cleavage of 0.105.
In the case of U37C G42U, the self-cleavage is reported as 0.127.
U37C G42C showed a self-cleavage of 0.196.
In the case of G36A U37C, the self-cleavage is reported as 0.156.
A35C G45C gave a self-cleavage of 0.472.
Work on G41A G47A yielded a self-cleavage of 0.278.
For G41A G47C, the self-cleavage was 0.2.
G41U G43A showed a self-cleavage of 0.163.
Work on G41U G43C yielded a self-cleavage of 0.135.
A35C G39U showed a self-cleavage of 0.144.
With G36C G43A the self-cleavage was 0.134.
In the case of G36C G43U, the self-cleavage is reported as 0.116.
Work on G36C U37A yielded a self-cleavage of 0.107.
With G36C U37G the self-cleavage was 0.297.
In the case of G36C U37C, the self-cleavage is reported as 0.123.
Work on A35G G38C yielded a self-cleavage of 0.632.
With A35C G43A the self-cleavage was 0.235.
In the case of A35C G43C, the self-cleavage is reported as 0.206.
Work on U37C C46A yielded a self-cleavage of 0.71.
In the case of U37C C46G, the self-cleavage is reported as 0.706.
With U37G G47C the self-cleavage was 0.306.
Work on U37G G47A yielded a self-cleavage of 0.673.
Variant G41U G42U has a self-cleavage of 0.125.
G41U G42C showed a self-cleavage of 0.164.
Variant G36C G42C has a self-cleavage of 0.189.
Work on G36C G42A yielded a self-cleavage of 0.134.
With G39C G47A the self-cleavage was 0.152.
In the case of G39C A40U, the self-cleavage is reported as 0.165.
G39C A40C showed a self-cleavage of 0.114.
Variant G39C A40G has a self-cleavage of 0.164.
In the case of G38C G41U, the self-cleavage is reported as 0.304.
G38C G41A showed a self-cleavage of 0.295.
For G38C G41C, the self-cleavage was 0.181.
A40C G44U showed a self-cleavage of 0.296.
Variant A40C G44A has a self-cleavage of 0.298.
G38U G48A gave a self-cleavage of 0.854.
G38U G48U showed a self-cleavage of 1.05.
U37G G42A showed a self-cleavage of 0.171.
With U37G G42C the self-cleavage was 0.103.
U37G G42U showed a self-cleavage of 0.163.
With A40G G48C the self-cleavage was 0.14.
A40G G48A gave a self-cleavage of 0.193.
For G41A G48C, the self-cleavage was 0.535.
For G41A G48A, the self-cleavage was 0.332.
Variant G41C G47A has a self-cleavage of 0.235.
Work on G41C G47C yielded a self-cleavage of 0.162.
Work on G41C G48U yielded a self-cleavage of 0.288.
G41C G48C gave a self-cleavage of 0.332.
In the case of G41C G48A, the self-cleavage is reported as 0.234.
In the case of A40U C46A, the self-cleavage is reported as 0.146.
G38A G43C gave a self-cleavage of 0.148.
Variant G38A G43A has a self-cleavage of 0.19.
With A35U U37G the self-cleavage was 0.69.
In the case of A35U U37C, the self-cleavage is reported as 0.633.
Variant U37C G47C has a self-cleavage of 0.341.
In the case of U37G G39C, the self-cleavage is reported as 0.143.
Variant U37G G39U has a self-cleavage of 0.114.
Variant U37G G38C has a self-cleavage of 0.208.
For G36U A40C, the self-cleavage was 0.122.
Variant G36U A40U has a self-cleavage of 0.141.
With A35G G41C the self-cleavage was 0.143.
A35G G41U showed a self-cleavage of 0.283.
U37C A40G gave a self-cleavage of 0.161.
U37C A40U gave a self-cleavage of 0.0912.
Work on U37C A40C yielded a self-cleavage of 0.0942.
For G39A G48A, the self-cleavage was 0.388.
Work on G39A G48U yielded a self-cleavage of 0.517.
Variant G36C G44A has a self-cleavage of 0.7.
Work on G39A C46A yielded a self-cleavage of 0.463.
G39A C46U showed a self-cleavage of 0.445.
In the case of G39U G48U, the self-cleavage is reported as 0.196.
U37A G39U gave a self-cleavage of 0.159.
U37A G39A gave a self-cleavage of 0.173.
Variant U37G G43U has a self-cleavage of 0.173.
U37G G43A showed a self-cleavage of 0.13.
A35U G48C gave a self-cleavage of 1.07.
Work on A35U G48U yielded a self-cleavage of 1.17.
Variant G38A G47C has a self-cleavage of 0.522.
For G38A G47U, the self-cleavage was 0.814.
Variant G38C C46U has a self-cleavage of 0.855.
With A40U G42U the self-cleavage was 0.15.
Variant A35C G42C has a self-cleavage of 0.381.
For A40G G42U, the self-cleavage was 0.172.
In the case of U37A G41A, the self-cleavage is reported as 0.16.
U37A G41U showed a self-cleavage of 0.115.
Variant U37A G41C has a self-cleavage of 0.178.
With G38A C46A the self-cleavage was 0.875.
G38A C46G gave a self-cleavage of 0.966.
For U37C G45C, the self-cleavage was 0.26.
Work on U37C G45A yielded a self-cleavage of 0.691.
U37G A40G showed a self-cleavage of 0.155.
U37A G47A showed a self-cleavage of 0.457.
With G39C C46U the self-cleavage was 0.14.
Work on G38C G43A yielded a self-cleavage of 0.149.
Variant G38C G43C has a self-cleavage of 0.137.
Variant G38C G43U has a self-cleavage of 0.242.
G38U G41A gave a self-cleavage of 0.162.
Variant G38U G41U has a self-cleavage of 0.196.
G38U G41C gave a self-cleavage of 0.149.
With U37A G43U the self-cleavage was 0.186.
Variant G36A G47A has a self-cleavage of 0.557.
In the case of G36A G47U, the self-cleavage is reported as 0.76.
Work on A40C G41U yielded a self-cleavage of 0.157.
Work on A40C G41A yielded a self-cleavage of 0.115.
In the case of G36U G43C, the self-cleavage is reported as 0.124.
Work on G36U G43A yielded a self-cleavage of 0.102.
For A35G G39C, the self-cleavage was 0.178.
For A35G G43A, the self-cleavage was 0.152.
Work on G36C G48U yielded a self-cleavage of 0.455.
G36U C46G gave a self-cleavage of 0.313.
G36U C46A gave a self-cleavage of 0.31.
G36U C46U showed a self-cleavage of 0.408.
In the case of A35G G44C, the self-cleavage is reported as 0.821.
A35G G44A showed a self-cleavage of 0.808.
With A35U G47C the self-cleavage was 0.694.
Variant A35U G45U has a self-cleavage of 0.812.
A35U G45C showed a self-cleavage of 0.723.
With A35C G44A the self-cleavage was 0.87.
Work on A35C G44U yielded a self-cleavage of 0.976.
Variant G38A has a self-cleavage of 0.965.
Variant G38C has a self-cleavage of 0.951.
With G38U the self-cleavage was 0.923.
For G36A G41C, the self-cleavage was 0.133.
G36A G41A gave a self-cleavage of 0.13.
G36C G45C gave a self-cleavage of 0.201.
Variant G36C G45U has a self-cleavage of 0.257.
